The values below come from patent publication US7501496 (ROCHE PALO ALTO, dated 2009).

Assay [1] concerns the target T1, Recombinant soluble human OX40L fused to a Histidine tag (human, UniProt P23510 51-183).
T1 construct: extracellular domain; there it was reduced and LDS-denatured; also called hOX40L-His; hOx40L-His; not shown: Histidine tag
T1 sequence (looked up): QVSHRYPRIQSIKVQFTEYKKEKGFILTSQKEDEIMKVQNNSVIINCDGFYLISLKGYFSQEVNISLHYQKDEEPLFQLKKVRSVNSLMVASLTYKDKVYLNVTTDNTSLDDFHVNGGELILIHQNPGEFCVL
The assay is described as follows: SPR, Biacore 3000; antibody captured via anti-Fcγ on CM5, hOX40L-His as analyte, 1:1 Langmuir fit; native hOX40L-His as analyte in SPR, antibody captured via Anti-hFcg, HBS-P pH 7.4, 25 C. The protocol: (§1) Instrument: Biacore 3000, running and reaction buffer: HBS-P (10 mM HEPES, 150 mM NaCl, 0.005% Tween 20, ph 7.4), 25° C. Injection of analyte was performed at 7 concentrations between 0.78 nM and 100 nM for 3 minutes and washed with HBS-P for 5 minutes. Regeneration of the surface (carboxymethylated dextrane surface, CM) was performed by two injections of 10 mM Glycine pH 2.0 for 1 min each. The chip, assay format and sequence of injections and kinetic data correspond to the description in the following table. Kinetic data were calculated by fitting kinetic data to a 1:1 Langmuir binding model.
A general note: Surface plasmon resonance follows binding to a sensor surface in real time, without labels.

Assay [2] has as its target T2, human OX40L expressed on cells (K562-hOX40L cells; HUVEC) (human, UniProt P23510 1-183).
T2 sequence (looked up): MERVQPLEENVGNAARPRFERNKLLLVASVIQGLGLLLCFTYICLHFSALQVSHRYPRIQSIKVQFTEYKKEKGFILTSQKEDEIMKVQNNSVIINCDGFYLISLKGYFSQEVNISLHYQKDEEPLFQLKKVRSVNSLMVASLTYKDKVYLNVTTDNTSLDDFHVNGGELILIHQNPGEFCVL
The experiment in a line: cell-based or functional assay.

The target of assay [3] is T1, Recombinant soluble human OX40L fused …. The assay is described as follows: SPR competition; hOX40L-His (10 nM) preincubated with antibody (0.78-100 nM), injected over immobilized OX40-hFc; native hOX40L-His (10 nM) preincubated with the antibody in solution, competition for immobilized OX40-hFc. The protocol: Instrument: Biacore 3000, running and reaction buffer: HBS-P (10 mM HEPES, 150 mM NaCl, 0.005% Tween 20, ph 7.4), 25° C. Prior to injection the analyte (10 nM) and competitor (eight concentrations between 0.78 nM and 100 nM) were preincubated for at least 20 min at 22° C. Injection of analyte+/−competitor was performed for 3 minutes and washed with HBS-P for three minutes. Regeneration of the surface was performed by two injections of 10 mM Glycine pH 2.0 for 1 min each. The chip, assay format and sequence of injections and kinetic data correspond to the description in the following table 3.

For assay [4] the target is unchanged. The experiment in a line: SPR, Biacore 3000; antibody captured via anti-Fcγ on CM5, hOX40L-His as analyte, 1:1 Langmuir fit. The protocol:
as §1

A value given as a limit tells only on which side of the number the result lay.

B1: Human anti-human OX40L monoclonal antibody LC.005 (antibody, IgG1, V domains shown)
VH: QVQLVESGGGVVQPGRSLRLSCAASGFTFSNFGMHWVRQAPGKGLEWVAAIWYDGHDKYYSYYVKGRFTISRDNSKNTLFLQMNSLRAEDTAVYYCARDSSSWYRYFDYWGQGTLVTVSS
VL: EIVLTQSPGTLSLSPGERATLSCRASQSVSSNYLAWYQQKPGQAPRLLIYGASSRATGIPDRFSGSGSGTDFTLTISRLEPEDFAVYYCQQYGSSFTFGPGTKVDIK
notes: also called LC2010-005; hu-Mab<hOX40L>LC.005
As to B1, in assay [1], the equilibrium dissociation constant (Kd) was below 0.015 nM, the koff is below 1e-06 s⁻¹ and the kon was 68400 M⁻¹ s⁻¹. Besides, the “IC50, IL-2 release of PHA-activated PBL co-stimulated with K562_OX40L cells” value in assay [2] was 10 nM. Besides, the 50% inhibitory concentration (IC50) in assay [3] was determined as 3 nM.

B2: Human anti-human OX40L monoclonal antibody LC.010 (antibody, IgG1, V domains shown)
VH: QVQLVESGGGVVQPGRSLRLSCAASGFTFSNFGMHWVRQAPGKGLEWVAAIWYDGHDKYYAYYVKGRFTISRDNSKNTLFLQMNSLRAEDTAVYYCARDSSSWYRYFDYWGQGTLVTVSS
VL: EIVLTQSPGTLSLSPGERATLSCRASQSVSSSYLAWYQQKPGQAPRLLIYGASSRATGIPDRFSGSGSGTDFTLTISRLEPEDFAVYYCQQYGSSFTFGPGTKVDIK
notes: also called LC2010-010; hu-Mab<hOX40L>LC.010
For the molecule B2, in assay [4], the dissociation constant (Kd) was 0.399 nM, the koff is 2.5e-05 s⁻¹ and the kon was determined as 62500 M⁻¹ s⁻¹.

B3: Human anti-human OX40L monoclonal antibody LC.033 (antibody, V domains shown)
VH: QKQLVEFGGGVVQPGRSLRLSCAASGFTFSNYGMHWVRQAPGKGLEWVAVIWNDGSNKYYVDSVKGRFIISRDNSKNTLYLQMNSLRAEDTAVYYCARDRMGIYYYGMDVWGQGTTVTVSS
VL: EIVLTQSPATLSLSPGERATLSCRASQGVSRYLAWYQQKPGQAPRLLIYDASNRATGIPARVSGSGPGTDFTLTISSLEPEDFAVDYCQQRSNWQYTFGQGTKLEI
notes: also called LC2010-033; hu-Mab<hOX40L>LC.033
As for B3, in assay [4], the Kd is below 0.014 nM, the koff came out at 2.09e-07 s⁻¹ and the kon amounted to 70100 M⁻¹ s⁻¹.

One may read the Kd as the equilibrium constant for the complex coming apart. What is called koff is the rate constant with which the complex falls apart. In general, kon refers to the rate constant with which the complex forms. As a reminder, the IC50 is the concentration that inhibits the measured activity by half.
